Assay results as given in patent publication US20220041754A1 (CRISPR THERAPEUTICS, published 2022).

B1: mouse anti-CD70-scFv monoclonal antibody 20H05-02D09 (antibody, mouse IgG1, kappa, V domains shown)
VH: QIQLVQSGPELKKPGETVKISCKASGYTFTNYGMHWVKQAPGKVLKWMGWINTYSGVPTYPDDFKGRFAFSLETSASTASLQINNLKNEDTATYFCATERLRGWFPFWGQGTLVTVSA
VL: QIVLTQSPAIMSASPGEKVTISCSASSSVSYMYWYQQKPGSSPKPWIYRTSNLASGVPARFSGSGSGTSYSLTISSMEAEDAATYYCQQYHSYPPTFGGGTKLEIKR
notes: also called 20H05-2D09; native 20H05-2D09
B2: biotin conjugated 20H05 (antibody, mouse IgG1, kappa, V domains shown)
VH: B1 VH
VL: B1 VL
modifications: conjugated with biotin; site and chain not stated
B3: APC conjugated 20H05 (antibody, mouse IgG1, kappa, V domains shown)
VH: B1 VH
VL: B1 VL
modifications: conjugated with APC (allophycocyanin); site and chain not stated
notes: also called direct APC conjugated antibody

Key:
[1] = biological target: T1, anti-CD70 CAR of SEQ ID NO: 6; assay: flow cytometry, antibody dilution 1:400, cell population with about 65.4% anti-CD70 CAR+ cells
T1 construct: also called anti-CD70 CAR T cells; anti-CD70 chimeric antigen receptor

[2] = biological target: T2, anti-CD19 CAR SEQ ID NO: 8; assay: flow cytometry on anti-CD19 CAR T cells, antibody at fold dilutions 100 to 12800, % CAR positive cells
T2 construct: also called anti-CD19 CAR T cells
Description: (§1) The purified 20H05-02D09 antibody was analyzed by flow cytometry for binding to CAR T cells expressing the anti-CD70 CAR of SEQ ID NO: 6 (anti-CD70 CAR T cells). CAR T cells expressing an anti-BCMA CAR of SEQ ID NO: 7 (anti-BCMA CAR T cells) or an anti-CD19 CAR SEQ ID NO: 8 (anti-CD19 CAR T cells) were used as negative controls. Anti-CD70-scFv antibody (20H05-02D09) was analyzed at various dilutions (FIG. 2).

[3] = biological target: T1, anti-CD70 CAR of SEQ ID NO: 6; assay: flow cytometry, antibody dilution 1:800, cell population with about 65.4% anti-CD70 CAR+ cells
[4] = biological target: T1, anti-CD70 CAR of SEQ ID NO: 6; assay: flow cytometry, antibody dilution 1:100, cell population with about 65.4% anti-CD70 CAR+ cells
[5] = biological target: T1, anti-CD70 CAR of SEQ ID NO: 6; assay: flow cytometry, antibody dilution 1:50, cell population with about 65.4% anti-CD70 CAR+ cells
[6] = biological target: T3, anti-BCMA CAR of SEQ ID NO: 7; assay: flow cytometry on anti-BCMA CAR T cells, antibody at fold dilutions 100 to 12800, % CAR positive cells
T3 construct: also called anti-BCMA CAR T cells
Description: as §1

[7] = biological target: T1, anti-CD70 CAR of SEQ ID NO: 6; assay: flow cytometry, antibody dilution 1:6400, cell population with about 65.4% anti-CD70 CAR+ cells
[8] = biological target: T1, anti-CD70 CAR of SEQ ID NO: 6; assay: flow cytometry, antibody dilution 1:1600, cell population with about 65.4% anti-CD70 CAR+ cells
[9] = biological target: T1, anti-CD70 CAR of SEQ ID NO: 6; assay: flow cytometry, antibody dilution 1:200, cell population with about 65.4% anti-CD70 CAR+ cells
[10] = biological target: T1, anti-CD70 CAR of SEQ ID NO: 6; assay: flow cytometry, antibody dilution 1:3200, cell population with about 65.4% anti-CD70 CAR+ cells

T1 sequence (chain, as listed by the source limits assumed): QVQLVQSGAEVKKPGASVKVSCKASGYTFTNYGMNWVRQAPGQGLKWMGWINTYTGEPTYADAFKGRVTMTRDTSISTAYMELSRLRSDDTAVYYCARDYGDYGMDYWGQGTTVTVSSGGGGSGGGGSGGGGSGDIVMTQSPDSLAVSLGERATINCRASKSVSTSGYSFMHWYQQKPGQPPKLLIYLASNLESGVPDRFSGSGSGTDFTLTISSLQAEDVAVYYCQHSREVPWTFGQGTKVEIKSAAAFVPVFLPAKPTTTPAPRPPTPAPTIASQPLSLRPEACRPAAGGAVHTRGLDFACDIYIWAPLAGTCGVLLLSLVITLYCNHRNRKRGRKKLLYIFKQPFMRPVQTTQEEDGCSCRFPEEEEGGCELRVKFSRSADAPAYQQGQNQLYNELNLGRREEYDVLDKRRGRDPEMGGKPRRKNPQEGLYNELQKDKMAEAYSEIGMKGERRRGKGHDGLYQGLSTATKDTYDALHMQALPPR
T3 sequence (chain, as listed by the source limits assumed): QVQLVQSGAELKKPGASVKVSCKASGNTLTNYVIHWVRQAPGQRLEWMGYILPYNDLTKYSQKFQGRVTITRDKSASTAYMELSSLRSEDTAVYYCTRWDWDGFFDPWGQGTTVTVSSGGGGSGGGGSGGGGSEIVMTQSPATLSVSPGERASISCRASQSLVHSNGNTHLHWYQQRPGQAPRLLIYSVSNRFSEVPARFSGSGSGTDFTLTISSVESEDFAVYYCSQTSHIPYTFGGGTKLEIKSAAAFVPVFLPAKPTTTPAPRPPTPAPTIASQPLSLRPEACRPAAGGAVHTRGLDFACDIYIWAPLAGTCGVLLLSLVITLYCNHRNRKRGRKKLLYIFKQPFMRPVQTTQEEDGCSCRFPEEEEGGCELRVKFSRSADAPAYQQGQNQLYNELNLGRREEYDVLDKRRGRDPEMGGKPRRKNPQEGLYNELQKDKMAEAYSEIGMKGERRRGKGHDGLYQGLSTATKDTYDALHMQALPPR

| Binder | percentage of anti-CD70 CAR+ cells [1] [%] | binding result [2] | percentage of anti-CD70 CAR+ cells [3] [%] | percentage of anti-CD70 CAR+ cells [4] [%] | percentage of anti-CD70 CAR+ cells [5] [%] | binding result [6] | percentage of anti-CD70 CAR+ cells [7] [%] | percentage of anti-CD70 CAR+ cells [8] [%] | percentage of anti-CD70 CAR+ cells [9] [%] | percentage of anti-CD70 CAR+ cells [10] [%] |
| --- | --- | --- | --- | --- | --- | --- | --- | --- | --- | --- |
| B1 | 67.2 | no binding | 66.5 | 67.5 | 67.7 | no binding | 66.5 | 65.4 | 68.3 | 67.8 |
| B2 | 66.4 | – | 67 | 65.9 | 66.3 | – | 65.3 | 66.4 | 67.6 | 66.2 |
| B3 | 61.8 | – | 61.5 | 61.3 | 60.8 | – | 62.4 | 61.4 | 61.7 | 62.7 |
